T1: PUF4 RNA-binding domain (Saccharomyces cerevisiae, UniProt P25339 537-888)
T1 sequence: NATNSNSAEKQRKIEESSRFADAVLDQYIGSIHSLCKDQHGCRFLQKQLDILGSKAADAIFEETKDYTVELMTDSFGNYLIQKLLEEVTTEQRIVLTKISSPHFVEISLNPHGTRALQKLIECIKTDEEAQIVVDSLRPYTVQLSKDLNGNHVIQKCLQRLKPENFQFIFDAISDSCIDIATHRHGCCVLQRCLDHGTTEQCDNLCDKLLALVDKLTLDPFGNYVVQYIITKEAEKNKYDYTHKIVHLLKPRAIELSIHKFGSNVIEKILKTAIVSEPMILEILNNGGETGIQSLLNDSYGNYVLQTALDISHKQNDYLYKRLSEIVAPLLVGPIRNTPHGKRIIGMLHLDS


Each binder was assayed against T1, PUF4 RNA-binding domain (assay: Mg; RNA-MaP; 20 mM Na-HEPES pH 7.4, 30 mM KOAc, 0.75 mM MgCl2, 0.1% Tween-20, 5% glycerol, 0.1 mg/mL BSA, 2 mM DTT; 25 C; 0.0125-409.6 nM protein). Details: tags: N-His6-TEV cleaved; C-SNAP kept, Cy3B-labelled; label: tethered on chip by stalled RNA polymerase.

Point of comparison: UCUCUUACUGUAUUAUUAUGUCUCUU (ssRNA) [Id_ii_S1_P5E.2_K5.1_C5.2_[C-2A]_[T-1C]_H5.1_A5.1_F5.1_T5.2_[A12G]], Kd 8.64 nM. Against it:
- UCUCUUGUUGUAUUAUUAAUUCUCUU (ssRNA) [Id_ii_S1_P5E.2_K5.1_C5.2_[C-2G]_H5.1_A5.1_F5.1_T5.2_[T11A]_[A12T]] — within 1.5-fold, 9.79 nM
- UCUCUUACUGUAUUAUUAAAUCUCUU (ssRNA) [Id_ii_S1_P5E.2_K5.1_C5.2_[C-2A]_[T-1C]_H5.1_A5.1_F5.1_T5.2_[T11A]] — 2.8-fold higher, 23.8 nM
- UCUCUUUUUGUAUUAUUAUCUCUCUU (ssRNA) [Id_ii_S1_P5E.2_K5.1_C5.2_[C-2T]_H5.1_A5.1_F5.1_T5.2_[A12C]] — 1.6-fold lower, 5.34 nM
- UCUCUUUGUAAUUUAUCUCUU (ssRNA) [Ic_S1_P4E.1_K4.1_C4.1_H4.1_A4.1_[T5A]_[A6T]_F4.1_T4.1] — 2.3-fold lower, 3.77 nM
- UCUCUUUCUGUAUUAUUAUUUCUCUU (ssRNA) [Id_ii_S1_P5E.2_K5.1_C5.2_[C-2T]_[T-1C]_H5.1_A5.1_F5.1_T5.2_[A12T]] — 1.6-fold lower, 5.27 nM
- UCUCUUCCACACUAUUAGAUCUCUU (ssRNA) [Id_ii_S1_P4E.4_K4.3_C4.2_[T-1C]_H4.3_A4.1_F4.1_T4.2_[T11A]] — higher, > 2300 nM
- UCUCUUUCUGUAUUAUUAUGUCUCUU (ssRNA) [Id_ii_S1_P5E.2_K5.1_C5.2_[C-2T]_[T-1C]_H5.1_A5.1_F5.1_T5.2_[A12G]] — 1.6-fold lower, 5.28 nM
- UCUCUUUGUGUAUUAUUAAUUCUCUU (ssRNA) [Id_ii_S1_P5E.2_K5.1_C5.2_[C-2T]_[T-1G]_H5.1_A5.1_F5.1_T5.2_[T11A]_[A12T]] — 1.8-fold lower, 4.68 nM
- UCUCUUUAUGUAUUAUUAUUUCUCUU (ssRNA) [Id_ii_S1_P5E.2_K5.1_C5.2_[C-2T]_[T-1A]_H5.1_A5.1_F5.1_T5.2_[A12T]] — within 1.5-fold, 7.85 nM
- UCUCUUUAUGUAUUAUUAACUCUCUU (ssRNA) [Id_ii_S1_P5E.2_K5.1_C5.2_[C-2T]_[T-1A]_H5.1_A5.1_F5.1_T5.2_[T11A]_[A12C]] — 1.6-fold higher, 13.9 nM
- UCUCUUAUUGUAUUAUUAGCUCUCUU (ssRNA) [Id_ii_S1_P5E.2_K5.1_C5.2_[C-2A]_H5.1_A5.1_F5.1_T5.2_[T11G]_[A12C]] — 1.9-fold lower, 4.53 nM
- UCUCUUUAUGUAUUAUUAGCUCUCUU (ssRNA) [Id_ii_S1_P5E.2_K5.1_C5.2_[C-2T]_[T-1A]_H5.1_A5.1_F5.1_T5.2_[T11G]_[A12C]] — 1.9-fold lower, 4.56 nM
- UCUCUUCCACACUAUUAAAUCUCUU (ssRNA) [Id_ii_S1_P4E.4_K4.3_C4.2_[T-1C]_H4.3_A4.1_F4.1_T4.2_[G10A]_[T11A]] — higher, > 2300 nM
- UCUCUUUGUACAAUAUCUCUU (ssRNA) [Ib_S1_P4E.1_K4.1_C4.1_H4.1_A4.1_[T5C]_[T7A]_F4.1_T4.1] — 6.7-fold lower, 1.29 nM
- UCUCUUUGUAUUAAUAUCUCUU (ssRNA) [Ia_S1_P5E.1_K5.1_C5.1_H5.1_A5.1_F5.1_[T8A]_T5.1] — within 1.5-fold, 9.4 nM
- UCUCUUCAACACUAUUACGUCUCUU (ssRNA) [Id_ii_S1_P4E.4_K4.3_C4.2_[T-1A]_H4.3_A4.1_F4.1_T4.2_[G10C]_[T11G]] — higher, > 2300 nM
- UCUCUUGCUGUAUUAUUAUUUCUCUU (ssRNA) [Id_ii_S1_P5E.2_K5.1_C5.2_[C-2G]_[T-1C]_H5.1_A5.1_F5.1_T5.2_[A12T]] — within 1.5-fold, 10.5 nM
- UCUCUUGUUGUAUUAUUAUCUCUCUU (ssRNA) [Id_ii_S1_P5E.2_K5.1_C5.2_[C-2G]_H5.1_A5.1_F5.1_T5.2_[A12C]] — within 1.5-fold, 6.74 nM
- UCUCUUCAACACUAUUACUUCUCUU (ssRNA) [Id_ii_S1_P4E.4_K4.3_C4.2_[T-1A]_H4.3_A4.1_F4.1_T4.2_[G10C]] — higher, > 2300 nM
- UCUCUUACUGUAUUAUUAUUUCUCUU (ssRNA) [Id_ii_S1_P5E.2_K5.1_C5.2_[C-2A]_[T-1C]_H5.1_A5.1_F5.1_T5.2_[A12T]] — within 1.5-fold, 8.56 nM
- UCUCUUUUUGUAUUAUUAGCUCUCUU (ssRNA) [Id_ii_S1_P5E.2_K5.1_C5.2_[C-2T]_H5.1_A5.1_F5.1_T5.2_[T11G]_[A12C]] — 2-fold lower, 4.26 nM
- UCUCUUCUACACUAUUAUUUCUCUU (ssRNA) [Id_ii_S1_P4E.4_K4.3_C4.2_H4.3_A4.1_F4.1_T4.2_[G10T]] — higher, > 2300 nM
- UCUCUUCCACACUAUUAGCUCUCUU (ssRNA) [Id_ii_S1_P4E.4_K4.3_C4.2_[T-1C]_H4.3_A4.1_F4.1_T4.2_[T11C]] — higher, > 2300 nM
- UCUCUUUUUGUAUUAUUAAGUCUCUU (ssRNA) [Id_ii_S1_P5E.2_K5.1_C5.2_[C-2T]_H5.1_A5.1_F5.1_T5.2_[T11A]_[A12G]] — 2-fold higher, 17 nM
- UCUCUUUCUGUAUUAUUAAAUCUCUU (ssRNA) [Id_ii_S1_P5E.2_K5.1_C5.2_[C-2T]_[T-1C]_H5.1_A5.1_F5.1_T5.2_[T11A]] — within 1.5-fold, 8.35 nM
- UCUCUUAUUGUAUUAUUAUGUCUCUU (ssRNA) [Id_ii_S1_P5E.2_K5.1_C5.2_[C-2A]_H5.1_A5.1_F5.1_T5.2_[A12G]] — within 1.5-fold, 10.1 nM
- UCUCUUAUUGUAUUAUUAACUCUCUU (ssRNA) [Id_ii_S1_P5E.2_K5.1_C5.2_[C-2A]_H5.1_A5.1_F5.1_T5.2_[T11A]_[A12C]] — within 1.5-fold, 11.1 nM
- UCUCUUCCACACUAUUAGUUCUCUU (ssRNA) [Id_ii_S1_P4E.4_K4.3_C4.2_[T-1C]_H4.3_A4.1_F4.1_T4.2] — higher, > 2300 nM
- UCUCUUCAACACUAUUAAUUCUCUU (ssRNA) [Id_ii_S1_P4E.4_K4.3_C4.2_[T-1A]_H4.3_A4.1_F4.1_T4.2_[G10A]] — higher, > 2300 nM
- UCUCUUUCUGUAUUAUUAACUCUCUU (ssRNA) [Id_ii_S1_P5E.2_K5.1_C5.2_[C-2T]_[T-1C]_H5.1_A5.1_F5.1_T5.2_[T11A]_[A12C]] — within 1.5-fold, 5.78 nM

Source: publication PMC9352680, “A comprehensive thermodynamic model for RNA binding by the Saccharomyces cerevisiae Pumilio protein PUF4”
